# PMC4925323 (Molecular microbiology, 2016)
# B1: Listeria monocytogenes PrsA1 (residues 22-294), wild type (domain or fragment)
# chain: CGSSAVIKTDAGSVTQDELYEAMKTTYGNEVVQQLTFKKILEDKYTVTEKEVNAEYKKYEEQYGDSFESTLSSNNLTKTSFKENLEYNLLVQKATEANMDVSESKLKAYYKTWEPDITVRHILVDDEATAKEIQTKLKNGEKFTDLAKEYSTDTATSTNGGLLDPFGPGEMDETFEKAAYALENKDDVSGIVKSTYGYHLIQLVKKTEKGTYAKEKANVKAAYIKSQLTSENMTAALKKELKAANIDIKDSDLKDAFADYTSTSSTSSTTTSN
# Biological target: the molecule itself
# Test: crystal structure
protein,measurement,value
B1,stoichiometry N,2
